Experiments:
[1] = molecular target: LQTS-associated calmodulin variant D131H (human); assay: ITC; Kv7.1-HB peptide titrated into CaM (~50 uM) in the cell; 50 mM Na-HEPES, 100 mM KCl, 2 mM MgCl2, pH 7.5, 5 mM CaCl2; 25 °C; two-site binding model
[2] = molecular target: LQTS-associated calmodulin variant D95V (human); assay: as above
[3] = molecular target: LQTS-associated calmodulin variant N97I (human); assay: as above
[4] = molecular target: LQTS-associated calmodulin variant D131H (human); assay: ITC; peptide titrated into CaM (~50 uM) in the cell; 50 mM Na-HEPES, 100 mM KCl, 2 mM MgCl2, pH 7.5, 1 mM EGTA (Ca2+-free); 25 °C; one-site binding model
[5] = molecular target: LQTS-associated calmodulin variant D95V (human); assay: as above
[6] = molecular target: LQTS-associated calmodulin variant N97I (human); assay: as above

KD, first binding event [1]: 9.7 nM
KD, second binding event [1]: 908 nM
N, first binding event [1]: 0.8 sites
N, second binding event [1]: 1.4 sites
dH, first binding event [1]: -14.3 kcal/mol
dH, second binding event [1]: -15.5 kcal/mol
KD, first binding event [2]: 6.9 nM
KD, second binding event [2]: 725 nM
N, first binding event [2]: 0.8 sites
N, second binding event [2]: 0.8 sites
dH, first binding event [2]: -13.2 kcal/mol
dH, second binding event [2]: -14.9 kcal/mol
KD, first binding event [3]: 4.7 nM
KD, second binding event [3]: 775 nM
N, first binding event [3]: 1.1 sites
N, second binding event [3]: 1.1 sites
dH, first binding event [3]: -12.9 kcal/mol
dH, second binding event [3]: -11.5 kcal/mol
dH [4]: 3.3 kcal/mol
stoichiometry N [4]: 0.9 sites
Kd [5]: 3900 nM
dH [5]: 5.8 kcal/mol
stoichiometry N [5]: 0.9 sites
Kd [6]: 2400 nM
dH [6]: 4.7 kcal/mol
stoichiometry N [6]: 0.8 sites
Substance: Kv7.1-HB(507-536) peptide, helix B of the KCNQ1 C-terminus

From publication PMC10952621
